Measurements taken from a protein production outcome set (Wang et al. 2014).

Assay: label from the status in PepcDB records
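Further: failed if final PepcDB status was selected cloned or expressed and not failed if soluble or beyond.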

Sequence: MLTAAVLLPLVGALVAWIVPDNRLRPLVLPAVAVPHFLLTLALLAWTPPPSPQGWIFLDPLGKIVLLCISTLFLICAVYAVGYLAYRRDRSNRVLCMGLLACLSAMTLVTASQHLGLLWVAVETTTVTMAPLIYFNRNARSIEATWKYLLICSVGIALALLGLFFLAYATLVAHRDATLLLGPILASARELNPGWLHASFIFMLVGFGSKMGIAPLHSWKPDAYGEAPGLVGALLAGGLVNCAFLAILRVYQISLASGGEYLFFQKALLTMGLISMGLAAVFMARQADFKRMLAYSSVEHVGILAVALGLGKGALFGALFHLLNNGLTKGVLFLSSGNIHRSFNSKSTEVVRGALARLPWSAGLFLAGFIAITGSPPFSPFVSEFSIVSSAFVEGRYLVGGLFLFFLAVIFIGMALTVLPLVMGVPPADAERTDYRDRLLTVGPPLALLGLILMLGVWLPEPLLRLLGEGAALLEAKP
- protein production: failed

Sequence: MNILTLMETFSAVVEAGSFTGAAEKLGLSKSFVSKQVSTLEVELGCRLLYRTTRTLSLSDEGSQFYNHCKIIMAEAENARAEVMDRQGAPRGKIRMTIPQSLIISGFGQLLIDFQLQYPEIKLEVIASGRIEDLVKEGIDIALRVGQLEDSSLISRRLMDCTFQVVASSDYIKKWGEPFQPADLMQHNCLIYGDSKINKGWPFRSPSGESITVKAKGNFISNDGGLVVEGMLNGLGIGFGPSFLFNEHVEKGRLKLLLSDYYQPPTAISALYPLNRNLSRRIRLLIDYLSERLSV
- protein production: not failed

Sequence: MRMRSGTAVAGVAALAVAGMALTAAFEPVWAHGPTRQKVRESIEINAAPAKVWAVIGNFQDMSWLPPVTKTEGEKGNEIGATRRLTLTGGATVDEELYKFDAAAMTYSYRITAVDVKVLPVTNYSSTLTVTPSADGKGATLEWAGAFYRGFPNNDPPPELSDEAAKTAVSGLYKAGLEALKKKIESGS
- protein production: failed

Sequence: MGHHHHHHSHMLPVELVRHDVKKTDETSQVELMLQVDPDLFWFNGHFTGQPLLPGVAQLDWVMHYATTVLAQGWTFLSIENIKFQQPILPGKTLRLVLIWHAGKQSLTFSYSILEGDTERTASSGKIKLTPIMEDNPCQ
- protein production: not failed

Sequence: MKIRKLTNEEIKGACAFAVNIYNIAIRGCFRTLDCHRYFDEYMDADRLTDEERTGALVVFGAFDSNVLCGVCGMTNEGHITMLYVHPQYLRRGIGKKLLERVRIYARMQLKLMQVSVNAMPAYTAEYFMHVGFKSAYQGGFCNGQGDMYVPMTAKSIYQVEYTPRHIADKTFIAISVGFTCLVFVSGVIYAVCAGLTP
- protein production: failed

Sequence: MSLRIAIVGAGALGLYYGALLQRSGEDVHFLLRRDYEAIAGNGLKVFSINGDFTLPHVKGYRAPEEIGPMDLVLVGLKTFANSRYEELIRPLVEEGTQILTLQNGLGNEEALATLFGAERIIGGVAFLCSNRGEPGEVHHLGAGRIILGEFLPRDTGRIEELAAMFRQAGVDCRTTDDLKRARWEKLVWNIPFNGLCALLQQPVNLILARDVSRKLVRGIMLEVIAGANAQGLATFIADGYVDDMLEFTDAMGEYKPSMEIDREEGRPLEIAAIFRTPLAYGAREGIAMPRVEMLATLLEQATGEGHHHHHH
- protein production: not failed

Sequence: MTFLQRWQGLADNKICAFAWFVIRRFSEERVPQAAASMTFTTLLALVPVLTVMVAVASIFPVFDRWSDSFVSFVNQTIVPQGADMVFDYIDAFRDQANRLTAIGSVMLVVTSLMLIRTIDNAFNRIWRVNTQRPWMMQFLVYWALLTFGPLSLGVGISFMVGSVQDSVLSSGAQQWADALKTAARLAFMTLLLWGLYRFVPNRFVPARQAFVGALITAFCLETARFLFTWYMGNFDGYRSIYGAFAAVPFFLLWLNLLWTLVLGGAVLTSSLSYWQGEAFRRGFDSRGRFDDVLKILLLLDAAQKEGRTLSVQEFRRHINMGYDELGELLEKLARYGYIYSGRQGWVLKTGADSIELSELFKLFVYRPLPVERDHVNQAVDAVMTPCLQTLNMTLAEFDAQAKKQQQS
- protein production: failed

Sequence: MASTYYELLGVSKYASEADIKKAFKDLAKKYHPDKHPGEAFYEEHFKKINEAYQILSDKQARQNYDFRLQYGQHAQQSRPAQNQQRAYQRPTATYQQPKYRRPKPAASGTSAYQKKLNTYYISIAIGAVVFIFACYWFYSFMNTYSSKKYFNEGLKAESRGNDMQALSFYFSALEINLKNPEVNEKIGDLYSKFATNSSYDLFYYDLELQKNFQDPDFDATSIELLKKTRNVDSLAALYYKRSFENFEMPVDKRRVGLKSIKACLKTGDYKQAADNLYKVSFLPDYKRDDSVLYYRGDVIFQTRFYDQARDNYRKFLALHPTSAEASVKIAVCHYNEHNEDYALAQLAKTIKRFPANGEAYYFLGQIHLRNNDTLKACSNFYKADSLHVLAAKPSLYKYCRN
- protein production: failed
